The results in this text go back to publication PMC4359947.

For the experiment, the target named is MAGI-1 PDZ3 domain, Cy3-labelled, tag-free. The experiment is described as follows: FRET or BRET. (BRET reads energy transfer from a luciferase to a nearby fluorophore.)

Ends that are not written are not given here.

Usually Kd stands for the constant that tells how readily two partners part at equilibrium. Higher therefore signals a looser complex. The molecule GAIPVMIPAQSKDGSIV (also: Cy5 label (approximately 1 dye/peptide), site not given here) [CAR (CAR^Ex7) C-terminus, Cy5-labelled, tag-free] gave a Kd of 2 nM.
